# Results: publication PMC8004850, “The Histidine Phosphocarrier Kinase/Phosphorylase from Bacillus Subtilis Is an Oligomer in Solution with a High Thermal Stability” (International Journal of Molecular Sciences, 2021)
# B1: histidine phosphocarrier protein (HPr) kinase/phosphorylase of Bacillus subtilis (enzyme, UniProt O34483 1-310, looked up)
# chain: MAKVRTKDVMEQFNLELISGEEGINRPITMSDLSRPGIEIAGYFTYYPRERVQLLGKTELSFFEQLPEEEKKQRMDSLCTDVTPAIILSRDMPIPQELIDASEKNGVPVLRSPLKTTRLSSRLTNFLESRLAPTTAIHGVLVDIYGVGVLITGKSGVGKSETALELVKRGHRLVADDCVEIRQEDQDTLVGNAPELIEHLLEIRGLGIINVMTLFGAGAVRSNKRITIVMNLELWEQGKQYDRLGLEEETMKIIDTEITKLTIPVRPGRNLAVIIEVAAMNFRLKRMGLNAAEQFTNKLADVIEDGEQEE
# notes: HPr kinase/phosphorylase (HPrK/P) of Bacillus subtilis; theoretical molecular weight 36.6 kDa including the His-tag; Vector was a gift from Dr. A. Galinier; Oligomeric state depends on the buffer: monomer in pure water (DLS), mainly hexamer in 50 mM sodium phosphate pH 7.0; also called bsHPrK/P; HPrK/P; source: E. coli BL21 (DE3), purified (Ni-resin, Superdex 200 gel filtration), dialysed against …
# Target: the molecule itself
# Assay: small-angle X-ray scattering (SAXS); 50 mM sodium phosphate buffer pH 7.0, 36 (legend: 35) and 8 µM protein, 25 °C; gyration radius compared with that calculated for the hexamer of PDB 1KNX
protein,measurement,value
B1,stoichiometry N,6
